# *1 amine or outer side, *2 acyl side, *3 side chain or, on linkers, in order; H or OH if unused. Primed or numbered codes have the meaning given here. Side-chain parts run from the residue outwards. [ ]: non-standard residue; d: D form. The star is where a group is joined. PEG12 = NCCOCCOCCOCCOCCOCCOCCOCCOCCOCCOCCOCCOCCC(=O)O; γGlu = O=C(O)[C@H](CCC(=O)[*:2])N[*:1]; 1Nal = N[C@@H](Cc1cccc2ccccc12)C(=O)O; Stearoyl = CCCCCCCCCCCCCCCCCC(=O)*; Palmitoyl = CCCCCCCCCCCCCCCC(=O)*; αMeK = C[C@](N)(CCCCN)C(=O)O; Nle = CCCC[C@H](N)C(=O)O; PEG2′ = PEG2 spacer unit; PEG2″ = not defined here; Aib = CC(C)(N)C(=O)O
# T1: RXFP1 receptor (UniProt Q9HBX9 1-757, limits assumed)
# T1 sequence (looked up): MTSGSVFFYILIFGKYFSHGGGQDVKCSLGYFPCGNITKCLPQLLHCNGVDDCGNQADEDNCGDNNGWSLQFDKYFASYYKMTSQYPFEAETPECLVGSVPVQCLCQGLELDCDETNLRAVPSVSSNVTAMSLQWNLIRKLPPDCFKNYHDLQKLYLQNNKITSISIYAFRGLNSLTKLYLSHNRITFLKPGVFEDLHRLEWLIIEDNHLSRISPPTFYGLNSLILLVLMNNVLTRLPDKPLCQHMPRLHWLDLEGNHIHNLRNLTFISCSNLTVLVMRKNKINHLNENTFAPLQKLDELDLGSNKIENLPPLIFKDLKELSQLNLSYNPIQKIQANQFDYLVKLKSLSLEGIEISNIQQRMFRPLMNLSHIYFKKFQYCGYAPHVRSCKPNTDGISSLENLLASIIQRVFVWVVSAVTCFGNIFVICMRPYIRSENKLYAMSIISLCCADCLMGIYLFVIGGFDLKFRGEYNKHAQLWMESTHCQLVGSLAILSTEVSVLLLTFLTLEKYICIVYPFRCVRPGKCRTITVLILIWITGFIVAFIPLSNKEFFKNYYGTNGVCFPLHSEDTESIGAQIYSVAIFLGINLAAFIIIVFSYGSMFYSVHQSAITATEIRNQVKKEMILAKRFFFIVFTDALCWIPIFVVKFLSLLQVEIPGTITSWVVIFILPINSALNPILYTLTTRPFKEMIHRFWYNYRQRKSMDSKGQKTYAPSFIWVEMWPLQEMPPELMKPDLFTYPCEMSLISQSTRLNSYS
# B1: peptide of SEQ ID NO: 68 (peptide)
# peptide: Ac-LEGREKVRAQI[Aib][Aib]EGESTWS[Aib]RKKK([PEG2″-PEG2″-γGlu-γGlu-γGlu-Stearoyl])-NH2
# B2: peptide of SEQ ID NO: 85 (peptide)
# peptide: Ac-LEGREKVR[Aib]K(Ac)I[Aib][Aib]EG[Nle]ST[1Nal]S[Aib]RKK(Ac)K([PEG2′-PEG2′-PEG2′-γGlu-γGlu-γGlu-Stearoyl])-NH2
# B3: peptide of SEQ ID NO: 75 (peptide)
# peptide: Ac-LEGREKVRAQI[Aib][Aib]EG[Nle]STWS[Aib]RKKK([PEG2″-PEG2″-PEG2″-γGlu-γGlu-γGlu-Stearoyl])-NH2
# B4: peptide of SEQ ID NO: 73 (peptide)
# peptide: Ac-LEGREKVRAK(Ac)I[Aib][Aib]EG[Nle]STWS[Aib]RKK([PEG2″-PEG2″-γGlu-γGlu-γGlu-Stearoyl])-NH2
# B5: peptide of SEQ ID NO: 66 (peptide)
# peptide: Ac-LEGREKVRAK(Ac)I[Aib][Aib]EG[Nle]STWS[Aib]RKK(Ac)K([PEG12-γGlu-γGlu-γGlu-Palmitoyl])-NH2
# SMILES: CCCCCCCCCCCCCCCC(=O)N[C@@H](CCC(=O)N[C@@H](CCC(=O)N[C@@H](CCC(=O)NCCOCCOCCOCCOCCOCCOCCOCCOCCOCCOCCOCCOCCC(=O)NCCCC[C@H](NC(=O)[C@H](CCCCNC(C)=O)NC(=O)[C@H](CCCCN)NC(=O)[C@H](CCCNC(=N)N)NC(=O)C(C)(C)NC(=O)[C@H](CO)NC(=O)[C@H](Cc1c[nH]c2ccccc12)NC(=O)[C@@H](NC(=O)[C@H](CO)NC(=O)[C@H](CCCC)NC(=O)CNC(=O)[C@H](CCC(=O)O)NC(=O)C(C)(C)NC(=O)C(C)(C)NC(=O)[C@@H](NC(=O)[C@H](CCCCNC(C)=O)NC(=O)[C@H](C)NC(=O)[C@H](CCCNC(=N)N)NC(=O)[C@@H](NC(=O)[C@H](CCCCN)NC(=O)[C@H](CCC(=O)O)NC(=O)[C@H](CCCNC(=N)N)NC(=O)CNC(=O)[C@H](CCC(=O)O)NC(=O)[C@H](CC(C)C)NC(C)=O)C(C)C)[C@@H](C)CC)[C@@H](C)O)C(N)=O)C(=O)O)C(=O)O)C(=O)O
# B6: peptide of SEQ ID NO: 9 (peptide)
# peptide: Ac-LEGREKVRAQI[Aib][Aib]EG[Nle]STWS[Aib]RKK([γGlu-γGlu-γGlu-Stearoyl])-NH2
# SMILES: CCCCCCCCCCCCCCCCCC(=O)N[C@@H](CCC(=O)N[C@@H](CCC(=O)N[C@@H](CCC(=O)NCCCC[C@H](NC(=O)[C@H](CCCCN)NC(=O)[C@H](CCCNC(=N)N)NC(=O)C(C)(C)NC(=O)[C@H](CO)NC(=O)[C@H](Cc1c[nH]c2ccccc12)NC(=O)[C@@H](NC(=O)[C@H](CO)NC(=O)[C@H](CCCC)NC(=O)CNC(=O)[C@H](CCC(=O)O)NC(=O)C(C)(C)NC(=O)C(C)(C)NC(=O)[C@@H](NC(=O)[C@H](CCC(N)=O)NC(=O)[C@H](C)NC(=O)[C@H](CCCNC(=N)N)NC(=O)[C@@H](NC(=O)[C@H](CCCCN)NC(=O)[C@H](CCC(=O)O)NC(=O)[C@H](CCCNC(=N)N)NC(=O)CNC(=O)[C@H](CCC(=O)O)NC(=O)[C@H](CC(C)C)NC(C)=O)C(C)C)[C@@H](C)CC)[C@@H](C)O)C(N)=O)C(=O)O)C(=O)O)C(=O)O
# B7: peptide of SEQ ID NO: 70 (peptide)
# peptide: Ac-LEGREKVRAQI[Aib][Aib]EGQSTWS[Aib]RKKK([PEG2″-PEG2″-γGlu-γGlu-γGlu-Stearoyl])-NH2
# B8: peptide of SEQ ID NO: 8 (peptide)
# peptide: Ac-LEGREKVRAQI[Aib][Aib]EG[Nle]STWS[Aib]RKK([γGlu-γGlu-γGlu-Palmitoyl])-NH2
# SMILES: CCCCCCCCCCCCCCCC(=O)N[C@@H](CCC(=O)N[C@@H](CCC(=O)N[C@@H](CCC(=O)NCCCC[C@H](NC(=O)[C@H](CCCCN)NC(=O)[C@H](CCCNC(=N)N)NC(=O)C(C)(C)NC(=O)[C@H](CO)NC(=O)[C@H](Cc1c[nH]c2ccccc12)NC(=O)[C@@H](NC(=O)[C@H](CO)NC(=O)[C@H](CCCC)NC(=O)CNC(=O)[C@H](CCC(=O)O)NC(=O)C(C)(C)NC(=O)C(C)(C)NC(=O)[C@@H](NC(=O)[C@H](CCC(N)=O)NC(=O)[C@H](C)NC(=O)[C@H](CCCNC(=N)N)NC(=O)[C@@H](NC(=O)[C@H](CCCCN)NC(=O)[C@H](CCC(=O)O)NC(=O)[C@H](CCCNC(=N)N)NC(=O)CNC(=O)[C@H](CCC(=O)O)NC(=O)[C@H](CC(C)C)NC(C)=O)C(C)C)[C@@H](C)CC)[C@@H](C)O)C(N)=O)C(=O)O)C(=O)O)C(=O)O
# B9: peptide of SEQ ID NO: 77 (peptide)
# peptide: Ac-LEGREKVRLQI[Aib][Aib]EG[Nle]STWT[Aib]RKKK([PEG2″-PEG2″-PEG2″-γGlu-γGlu-γGlu-Stearoyl])-NH2
# B10: peptide of SEQ ID NO: 80 (peptide)
# peptide: Ac-LEGREKVR[Aib]K(Ac)I[Aib][Aib]EG[Nle]ST[1Nal]S[Aib]RKK([PEG2′-PEG2′-PEG2′-γGlu-γGlu-γGlu-Stearoyl])-NH2
# B11: peptide of SEQ ID NO: 74 (peptide)
# peptide: Ac-LEGREKVRAQI[Aib][Aib]EG[Nle]STWS[Aib]RKK([PEG2″-PEG2″-PEG2″-γGlu-γGlu-γGlu-Stearoyl])-NH2
# B12: peptide of SEQ ID NO: 71 (peptide)
# peptide: Ac-LEGREKVRAQI[Aib][Aib]EG[Nle]STWS[Aib]RKKK([PEG2″-PEG2″-γGlu-γGlu-γGlu-Stearoyl])-NH2
# B13: peptide of SEQ ID NO: 81 (peptide)
# peptide: Ac-LEGREKVRAK(Ac)I[Aib][Aib]EG[Nle]STWS[Aib]RKK(Ac)K([PEG2′-PEG2′-PEG2′-γGlu-γGlu-γGlu-Stearoyl])-NH2
# B14: peptide of SEQ ID NO: 76 (peptide)
# peptide: Ac-LEGREKVRAQI[Aib][Aib]EG[Nle]STWT[Aib]RKKK([PEG2″-PEG2″-PEG2″-γGlu-γGlu-γGlu-Stearoyl])-NH2
# B15: peptide of SEQ ID NO: 69 (peptide)
# peptide: Ac-LEGREKVR[Aib]QI[Aib][Aib]EG[Nle]STWS[Aib]RKKK([PEG2″-PEG2″-γGlu-γGlu-γGlu-Stearoyl])-NH2
# B16: peptide of SEQ ID NO: 84 (peptide)
# peptide: Ac-LEGREKVRAK(Ac)I[Aib][Aib]EG[Nle]ST[1Nal]S[Aib]RKK(Ac)K([PEG2′-PEG2′-PEG2′-γGlu-γGlu-γGlu-Stearoyl])-NH2
# B17: peptide of SEQ ID NO: 83 (peptide)
# peptide: Ac-LEGREKVRAK(Ac)I[Aib][Aib]EG[Nle]STWS[Aib]RKK([PEG2′-PEG2′-PEG2′-γGlu-γGlu-γGlu-Stearoyl])-NH2
# B18: peptide of SEQ ID NO: 82 (peptide)
# peptide: Ac-LEGREKVRAK(Ac)I[Aib][Aib]EG[Nle]STWS[αMeK]RKK(Ac)K([PEG2′-PEG2′-PEG2′-γGlu-γGlu-γGlu-γGlu-Stearoyl])-NH2
# B19: peptide of SEQ ID NO: 72 (peptide)
# peptide: Ac-LEGREKVRAK(Ac)I[Aib][Aib]EG[Nle]STWS[Aib]RK(Ac)KK([PEG2″-PEG2″-γGlu-γGlu-γGlu-Stearoyl])-NH2
# B20: peptide of SEQ ID NO: 78 (peptide)
# peptide: Ac-LEGREKVRAK(Ac)I[Aib][Aib]EG[Nle]STYS[Aib]RKK(Ac)K([PEG2″-PEG2″-PEG2″-γGlu-γGlu-γGlu-Stearoyl])-NH2
# B21: peptide of SEQ ID NO: 79 (peptide)
# peptide: Ac-LEGREKVRAK(Ac)I[Aib][Aib]EG[Nle]ST[1Nal]S[Aib]RKK([PEG2″-PEG2″-PEG2″-γGlu-γGlu-γGlu-Stearoyl])-NH2
# B22: peptide of SEQ ID NO: 67 (peptide)
# peptide: Ac-LEGREKVRAQI[Aib][Aib]EG[Nle]STWS[Aib]RKK([PEG2″-PEG2″-γGlu-γGlu-γGlu-Stearoyl])-NH2
# Molecular target: T1, RXFP1 receptor
# Experiment: cell-based or functional assay
"EC50 (nM), OVCAR 5 cells (cAMP) [nM]","EMax, OVCAR 5 cells (cAMP) [%]",Binder
0.63,94,B1
0.77,75,B2
–,88,B3
0.12,90,B4
0.57,83,B5
11.8,95,B6
0.28,86,B7
26.7,98,B8
2.94,92,B9
0.73,68,B10
0.07,85,B11
0.52,87,B12
0.22,84,B13
0.8,89,B14
0.56,87,B15
0.09,76,B16
0.85,92,B17
0.02,89,B18
0.17,93,B19
1.04,73,B20
0.4,75,B21
0.39,89,B22

# Source: US20190233493A1 (Sanofi, published 2019)
